Tested on: C81 cells
Assay: C81 xenografts in female athymic nude mice
Assay type: in vivo
Protocol: FIG. 8A-C. Manipulation of EBP1 expression affects growth of prostate cancer cells in vivo. A. Ectopic expression of EBP1 reduces the growth of androgen independent cells in athymic female mice C81 vector or EBP1 transfected cells were injected subcutaneously into female athymic mice. Tumor development with time is shown (n=10 animals, 20 sites per group). B. Tumor volumes and growth rate. Tumor volumes were calculated as described in “Materials and Methods”. Each point represents the mean±SE (10 mice per group injected at 20 sites). C. Elimination of EBP1 expression enhances growth of androgen dependent LNCaP cells in vivo. A16 lentivirus control or C13 EBP1 shRNA transduced LNCaP cells were injected subcutaneously into female athymic mice. Tumor volumes were calculated as described in “Materials and Methods”. Each point represents the mean±SE (10 mice per group injected at 20 sites). * indicates p 0.04.
Western Blot Analysis. Western blot analysis was performed as previously described (19). The Ebp1 antibody was from Upstate (Lake Placid, N.Y.), the polyclonal antibody to actin from Sigma, the AKT and phospho AKT antibodies from Cell Signaling (Beverly, Mass.) and the AGR2 antibody was previously described (20) Cell Growth Assays Cell growth measurement in complete media was performed as described using a hemocytometer (21). For soft agar growth assays, increasing concentrations of cells (as indicated) were plated in 35 mm Petri dishes in 0.3% agar in complete media and colonies were counted after 10 days of incubation (21). For studies assessing the effect of DHT, HRG or chemotherapeutic agents on cell growth, cells (5×10^3) were plated in 96 well plates in complete media. After a 24-hour attachment period, the medium was replaced with steroid free medium [phenol red free RPMI 1640 and 5% charcoal stripped fetal bovine serum (Sigma)]. After 48 hours of steroid depletion, cells were refed with fresh steroid reduced medium with or without the indicated concentrations of DHT, bicalutamide (Casodex) (10 μM), HRG or the chemotherapeutic drugs at the concentrations indicated. Relative cell growth was determined using a Promega Proliferation Reagent (Promega, Madison Wis.) as per manufacturer's instructions with absorbance being read at […] using a Dynex plate reader. Luciferase Reporter Assays Cells (5×10^4) were plated in 12 well plates in complete media. When cells reached 50-60% confluence, they were transfected using the FuGENE®-6 Reagent (Roche, Indianapolis, Ind.) according to the manufacturer's instructions. Cells were transfected with 0.5 μg of an MMTV-luciferase reporter plasmid and 5 ng of a TK Renilla plasmid (Promega, Madison, Wis.) as an internal control. Complete medium was replaced 24 h after transfection with phenol red free RPMI 1640 with CSS with or without R1881 (10^−8M). Luciferase activity was determined using the Promega Dual luciferase assay kit as described by the manufacturer. In Vivo Studies in Athymic Mice Female nude athymic NCr-nu/nu mice, 4-6 weeks of age, were purchased from the National Cancer Institute (Frederick, Md.). Animals were housed in a pathogen free environment under controlled conditions of light and humidity and received food and water ad libitum. […] Tumors were measured with calipers. Tumor volumes were calculated by the formula width^2×length/2 […]. Mean tumor volume±S.D. were calculated and plotted against time. […] Statistical Analysis Results of growth assays were analyzed using a two-sided Students t-test. […]

B1: EBP1: ErbB3 binding protein (SEQ ID NO: 2), AR corepressor, here ectopically expressed in cancer cells by stable transfection of an expression plasmid (protein, listed as Homo sapiens)
chain: MSGEDEQQEQTIAEDLVVTKYKMGGDIANRVLRSLVEASSSGVSVLSLCEKGDAMIMEETGKIFKKEKEMKKGIAFPTSISVNNCVCHFSPLKSDQDYILKEGDLVKIDLGVHVDGFIANVAHTFVVDVAQGTQVTGRKADVIKAAHLCAEAALRLVKPGNQNTQVTEAWNKVAHSFNCTPIEGMLSHQLKQHVIDGEKTIIQNPTDQQKKDHEKAEFEVHEVYAVDVLVSSGEGKAKDAGQRTTIYKRDPSKQYGLKMKTSRAFFSEVERRFDAMPFTLRAFEDEKKARMGVVECAKHELLQPFNVLYEKEGEFVAQFKFTVLLMPNGPMRITSGPFEPDLYKSEMEVQDAELKALLQSSASRKTQKKKKKKASKTAENATSGETLEENEAGD
modifications: FLAG tag
sites that developed tumors at the end of both studies (C81 EBP1 transfectants (vector 25/26), p=0.00001): 10/26
inoculation sites with tumors on Day 28 post transplantation (C81 EBP1 transfectants (vector controls 24/26)): 1/26
day on which the first tumor was observed (C81 EBP1 transfectants s.c. in female nude mice (vector day 8)): 20 days
average tumor volume at the end of the first study (C81 EBP1 transfectants, 6 sites per group, Mean+S.E. (vector 998±206), p=0.01): 104±70 mm^3
average tumor volume, second experiment (C81 EBP1 transfectants, 20 sites per group (vector 561±47), p=0.0001, in mm³ (unit assumed)): 206±54

— patent publication US7838495B2, “Compositions and methods of use of EPB1, and ErbB3 binding protein” (University of Maryland, Baltimore, priority 2007, dated 2010)
